Results from US20140341881A1 (DERMADIS, published 2014).

T1: human kallikrein 13 (hK13) (human, UniProt Q9UKR3 26-277, limits assumed)
T1 sequence (looked up): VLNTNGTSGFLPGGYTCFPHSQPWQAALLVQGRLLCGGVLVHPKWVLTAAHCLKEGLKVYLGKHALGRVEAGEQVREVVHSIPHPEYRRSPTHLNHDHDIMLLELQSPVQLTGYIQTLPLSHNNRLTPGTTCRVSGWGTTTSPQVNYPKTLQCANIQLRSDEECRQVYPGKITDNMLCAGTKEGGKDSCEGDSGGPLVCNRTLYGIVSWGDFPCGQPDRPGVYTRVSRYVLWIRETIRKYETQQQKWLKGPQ

T2: human kallikrein 8 (hK8) (human, UniProt O60259 33-260)
T2 sequence (looked up): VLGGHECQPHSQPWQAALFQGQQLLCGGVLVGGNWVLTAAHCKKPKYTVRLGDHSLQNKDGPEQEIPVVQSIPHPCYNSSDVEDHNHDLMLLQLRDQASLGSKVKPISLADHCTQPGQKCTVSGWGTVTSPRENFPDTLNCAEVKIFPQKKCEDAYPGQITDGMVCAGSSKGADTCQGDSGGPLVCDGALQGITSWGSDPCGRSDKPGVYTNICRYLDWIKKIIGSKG

T3: human neutrophil elastase (HNE) (human, UniProt P08246 30-247, limits assumed)
T3 sequence (looked up): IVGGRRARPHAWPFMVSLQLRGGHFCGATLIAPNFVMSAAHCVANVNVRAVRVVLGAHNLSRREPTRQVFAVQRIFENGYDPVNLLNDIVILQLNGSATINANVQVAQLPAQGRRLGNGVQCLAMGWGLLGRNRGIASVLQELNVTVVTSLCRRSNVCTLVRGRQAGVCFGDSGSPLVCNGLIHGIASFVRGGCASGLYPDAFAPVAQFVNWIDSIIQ

T4: human kallikrein 5 (hK5) (human, UniProt Q9Y337 67-293, limits assumed)
T4 sequence (looked up): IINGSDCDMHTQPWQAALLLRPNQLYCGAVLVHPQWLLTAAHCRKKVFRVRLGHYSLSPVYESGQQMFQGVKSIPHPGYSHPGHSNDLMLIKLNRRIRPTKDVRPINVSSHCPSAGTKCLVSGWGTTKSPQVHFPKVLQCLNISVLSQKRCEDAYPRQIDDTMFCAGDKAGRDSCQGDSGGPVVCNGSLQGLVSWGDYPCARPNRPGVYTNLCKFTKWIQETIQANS

B1: human kallikrein 14 (hK14) (enzyme, UniProt Q9P0G3 25-251, looked up)
chain: IIGGHTCTRSSQPWQAALLAGPRRRFLCGGALLSGQWVITAAHCGRPILQVALGKHNLRRWEATQQVLRVVRQVTHPNYNSRTHDNDLMLLQLQQPARIGRAVRPIEVTQACASPGTSCRVSGWGTISSPIARYPASLQCVNINISPDEVCQKAYPRTITPGMVCAGVPQGGKDSCQGDSGGPLVCRGQLQGLVSWGMERCALPGYPGVYTNLCKYRSWIEETMRDK
notes: range counted on GenBank AAK48524 (printed), which may differ from the UniProt numbering; also called recombinant hK14
B2: ACTG9 (other)
chain: MRGSHHHHHHSRHPNSPLDEENLTQENQDRGTHVDLGLASANVDFAFSLYKQLVLKAPDKNVIFSPLSISTALAFLSLGAHNTTLTEILKGLKFNLTETSEAEIHQSFQHLLRTLNQSSDELQLSMGNAMFVKEQLSLLDRFTEDAKRLYGSEAFATDFQDSAAAKKLINDYVKNGTRGKITDLIKDLDSQTMMVLVNYIFFKAKWEMPFDPQDTHQSRFYLSKKKWVMVPMMSLHHLTIPYFRDEELSCTVVELKYTGNASALFILPDQDKMEEVEAMLLPETLKRWRDSLEFREIGELYLPKFSISRDYNLNDILLQLGIEEAFTSKADLSGITGARNLAVSQVVHKAVLDVFEEGTEASAATAVKTVDYAALVETRTIVRFNRPFLMIIVPTDTQNIFFMSKVTNPKQA
notes: also called rACTG9

Tests used:
AATC11 = target: T5, AATC11 (human, UniProt P01009 25-418); test: progress curve; * [I0]/[E0] < 5 * SI
T5 construct: mature
Experimental: (§1) The association rate constants for interactions of hK14, with different inhibitors were determined under pseudo-first order conditions using the progress curve method (Morrison and Walsh, 1988). Under these conditions, a fixed amount of enzyme (2 nM) was mixed with different concentrations of inhibitor (0-80 nM) and an excess of substrate (20 μM). Reactions were performed in reaction buffer (50 mM Tris pH 7.5, 150 mM NaCl, 0.05% Triton X-100, 0.01% BSA) at 37° C. for 45 min and the rate of product formation was measured using a FLₓ800 fluorescence 96-well microplate reader (Biotek, USA) Inhibition is considered to be irreversible over the course of reaction and the progression of enzyme activity is expressed as product formation (P), beginning at a rate (vz) and is inhibited over time (t) at a first-order rate (kobs), where the rate constant is only dependent on the inhibitor concentration.

AATG1g = target: T6, AATG1g (human, UniProt P01009 25-418); test: progress curve; * [I0]/[E0] < 5 * SI
T6 construct: mature
Experimental: as §1

AATE5 = target: T7, AATE5 (human, UniProt P01009 25-418); test: progress curve; * [I0]/[E0] < 5 * SI
T7 construct: mature
Experimental: as §1

AATF3 = target: T8, AATF3 (human, UniProt P01009 25-418); test: progress curve; * [I0]/[E0] < 5 * SI
T8 construct: mature
Experimental: as §1

AATG1 = target: T9, AATG1 (human, UniProt P01009 25-418); test: progress curve; * [I0]/[E0] < 5 * SI
T9 construct: mature
Experimental: as §1

AATE8 = target: T10, AATE8 (human, UniProt P01009 25-418); test: progress curve; * [I0]/[E0] < 5 * SI
T10 construct: mature; also called rAATE8
Experimental: as §1

AATG9 [1] = target: T11, AATG9 (human, UniProt P01009 25-418); test: progress curve
T11 construct: mature; also called rAATG9
Experimental: as §1

[2] = target: T12, AATWT (recombinant wild type alpha-1-antitrypsin) (human, UniProt P01009 25-418); test: progress curve
T12 construct: mature; also called rAATwt; rAAT
Experimental: as §1

AATG9 [3] = target: T11, AATG9; test: progress curve, pseudo-first order, 37 C
Experimental: as §1
(§2) Kinetic analysis of the inhibition of human hK14 by recombinant serpins were performed under pseudo-first-order conditions using an excess of inhibitor at various molar ratios of hK14. The time-dependent inactivation of the enzyme through reaction with serpin was monitored continuously, following the decrease in the rate of substrate turnover. Progress curves for reactions with different serpin concentrations were fitted to equation 1 to calculate values describing the rate constant (kobs). The association rate constants (kₐ) were determined from the slope of kobs values versus the concentration of the hK14 inhibitors.

[4] = target: T12, AATWT (recombinant wild type …); test: progress curve, pseudo-first order, 37 C
Experimental: as §1, §2

[5] = target: B1; test: progress curve
[6] = target: B1; test: residual hK14 activity after 4 h at 37 C against [I0]/[E0]
Experimental: SI values of rAAT, rACT, and their variants were determined with hK14 incubating the protease with varying concentrations of inhibitor. After an incubation of 4 hours at 37° C. in reaction buffer (50 mM Tris, pH 7.5, 150 mM NaCl, 0.05% Triton X-100, 0.01% BSA), the residual activity was detected by the addition of fluorescent substrate (Boc-Val-Pro-Arg-AMC). Fluorescence was measured with excitation at 340 nm (±15) and emission at 485 nm (±10) in black 96 well plates using a microplate fluorescence reader FLₓ800 (Bio-Tek Instruments, Inc.). The SI value corresponds to the abscissa intercept of the linear regression analysis of fractional velocity (velocity of inhibited enzyme reaction (vi)/velocity of uninhibited enzyme reaction (v₀)) vs. the molar ratio of the inhibitor to enzyme ([I₀]/[E₀]).

[7] = target: T1, human kallikrein 13 (hK13); test: cell-based or functional assay
[8] = target: human plasma kallikrein (PK) (human, UniProt P03952 20-638); test: cell-based or functional assay
human kallikrein 8 (hK8) = target: T2, human kallikrein 8 (hK8); test: cell-based or functional assay
[9] = target: T3, human neutrophil elastase (HNE); test: cell-based or functional assay
human kallikrein 2 (hK2) = human kallikrein 2 (hK2) (human, UniProt P20151 25-261); test: cell-based or functional assay
[10] = target: human chymotrypsin (Chtr) (human, UniProt P17538 19-263); test: cell-based or functional assay
human kallikrein 5 (hK5) = target: T4, human kallikrein 5 (hK5); test: cell-based or functional assay
human kallikrein 6 (hK6) = human kallikrein 6 (hK6) (human, UniProt Q92876 22-244); test: cell-based or functional assay
[11] = target: B1; test: cell-based or functional assay
human kallikrein 4 (hK4) = human kallikrein 4 (hK4) (human, UniProt Q9Y5K2 31-254, limits assumed); test: cell-based or functional assay
thrombin = test: cell-based or functional assay
[12] = target: prostate specific antigen (PSA, hK3) (human, UniProt P07288 25-261); test: cell-based or functional assay
[13] = target: B1; test: progress curve; remark: listed apart in the source
[14] = target: B1; test: residual hK14 activity against [I0]/[E0]
How it was run: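 hK14 preincubated 4 hours at 37° C with varying inhibitor concentrations in 50 mM Tris pH 7.5, 150 mM NaCl, 0.05% Triton X-100, 0.01% BSA; residual activity read with Boc-Val-Pro-Arg-AMC (ex 340/em 485 nm). SI taken as abscissa intercept of vi/v₀ versus [I₀]/[E₀] linear regression.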

[15] = target: B1; test: progress curve, pseudo-first order, 37 C
Experimental: as §1, §2

T12 sequence (P01009 other isoform, or with tags, fused parts or gaps): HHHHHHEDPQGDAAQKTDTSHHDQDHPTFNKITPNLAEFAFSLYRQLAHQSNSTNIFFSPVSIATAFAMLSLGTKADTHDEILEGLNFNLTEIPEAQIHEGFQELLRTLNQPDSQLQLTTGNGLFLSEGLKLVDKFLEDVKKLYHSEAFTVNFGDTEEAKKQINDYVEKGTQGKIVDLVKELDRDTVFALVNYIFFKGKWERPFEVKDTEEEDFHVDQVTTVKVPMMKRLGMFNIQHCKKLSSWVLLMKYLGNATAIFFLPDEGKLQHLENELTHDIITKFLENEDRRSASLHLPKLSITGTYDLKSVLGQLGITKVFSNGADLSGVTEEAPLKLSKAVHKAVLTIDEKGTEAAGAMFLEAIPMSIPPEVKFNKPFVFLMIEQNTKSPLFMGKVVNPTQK
T11 sequence (P01009 other isoform, or with tags, fused parts or gaps): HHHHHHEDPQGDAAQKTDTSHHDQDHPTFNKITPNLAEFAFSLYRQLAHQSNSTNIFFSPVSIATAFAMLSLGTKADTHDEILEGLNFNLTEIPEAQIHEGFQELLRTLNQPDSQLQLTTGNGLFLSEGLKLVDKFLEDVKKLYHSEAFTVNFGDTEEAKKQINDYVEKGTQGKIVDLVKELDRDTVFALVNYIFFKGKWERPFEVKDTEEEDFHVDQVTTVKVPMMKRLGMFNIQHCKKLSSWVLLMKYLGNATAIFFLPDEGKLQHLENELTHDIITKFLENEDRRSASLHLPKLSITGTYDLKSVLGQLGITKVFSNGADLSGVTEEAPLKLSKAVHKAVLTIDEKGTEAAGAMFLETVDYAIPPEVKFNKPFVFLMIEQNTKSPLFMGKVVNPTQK
T8 sequence (P01009 other isoform, or with tags, fused parts or gaps): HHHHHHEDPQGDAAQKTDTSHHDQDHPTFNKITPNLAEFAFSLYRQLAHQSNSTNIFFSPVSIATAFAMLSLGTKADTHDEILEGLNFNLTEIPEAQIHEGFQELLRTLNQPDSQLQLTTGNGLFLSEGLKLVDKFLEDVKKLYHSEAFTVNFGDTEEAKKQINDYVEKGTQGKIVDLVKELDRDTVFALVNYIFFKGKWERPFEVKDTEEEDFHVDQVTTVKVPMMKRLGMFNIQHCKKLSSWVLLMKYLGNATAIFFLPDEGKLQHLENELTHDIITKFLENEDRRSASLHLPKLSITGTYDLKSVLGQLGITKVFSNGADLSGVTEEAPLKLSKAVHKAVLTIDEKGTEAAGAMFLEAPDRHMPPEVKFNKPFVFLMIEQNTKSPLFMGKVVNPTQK
T10 sequence (P01009 other isoform, or with tags, fused parts or gaps): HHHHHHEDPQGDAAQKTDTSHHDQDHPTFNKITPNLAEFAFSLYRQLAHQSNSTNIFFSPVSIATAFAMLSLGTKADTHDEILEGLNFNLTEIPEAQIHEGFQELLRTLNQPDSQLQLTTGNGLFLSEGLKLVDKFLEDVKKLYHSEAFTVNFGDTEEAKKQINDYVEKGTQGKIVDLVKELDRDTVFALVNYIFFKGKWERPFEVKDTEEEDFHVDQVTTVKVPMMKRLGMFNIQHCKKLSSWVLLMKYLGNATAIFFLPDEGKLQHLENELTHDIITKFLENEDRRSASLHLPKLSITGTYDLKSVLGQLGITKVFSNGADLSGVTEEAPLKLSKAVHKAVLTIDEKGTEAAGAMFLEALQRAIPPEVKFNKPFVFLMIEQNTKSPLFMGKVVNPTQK
T9 sequence (P01009 other isoform, or with tags, fused parts or gaps): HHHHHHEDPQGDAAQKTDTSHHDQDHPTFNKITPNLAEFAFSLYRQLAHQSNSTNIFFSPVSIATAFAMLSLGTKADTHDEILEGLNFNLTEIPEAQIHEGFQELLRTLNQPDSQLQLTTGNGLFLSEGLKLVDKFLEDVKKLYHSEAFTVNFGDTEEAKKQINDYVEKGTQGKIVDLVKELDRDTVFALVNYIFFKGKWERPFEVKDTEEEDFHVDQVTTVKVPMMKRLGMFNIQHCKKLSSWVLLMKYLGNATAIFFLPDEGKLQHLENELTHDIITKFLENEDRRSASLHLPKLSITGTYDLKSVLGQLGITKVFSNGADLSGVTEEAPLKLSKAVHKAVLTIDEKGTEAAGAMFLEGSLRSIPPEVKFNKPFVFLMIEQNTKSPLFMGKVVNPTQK
Sequence of human kallikrein 4 (hK4) (Q9Y5K2 31-254 limits assumed): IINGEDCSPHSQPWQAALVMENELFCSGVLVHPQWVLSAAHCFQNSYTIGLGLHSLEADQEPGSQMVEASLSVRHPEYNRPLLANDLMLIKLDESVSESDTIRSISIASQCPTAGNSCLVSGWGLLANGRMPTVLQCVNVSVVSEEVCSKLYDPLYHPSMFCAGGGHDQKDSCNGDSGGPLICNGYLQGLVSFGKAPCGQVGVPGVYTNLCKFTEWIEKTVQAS
Sequence of human chymotrypsin (Chtr) (P17538 19-263): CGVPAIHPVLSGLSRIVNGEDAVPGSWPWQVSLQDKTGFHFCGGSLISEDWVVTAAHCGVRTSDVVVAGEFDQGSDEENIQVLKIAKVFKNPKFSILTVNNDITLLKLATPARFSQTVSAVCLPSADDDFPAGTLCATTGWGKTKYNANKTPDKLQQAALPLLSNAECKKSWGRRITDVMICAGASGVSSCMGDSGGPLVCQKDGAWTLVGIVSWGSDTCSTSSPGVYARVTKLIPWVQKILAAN
Sequence of human plasma kallikrein (PK) (P03952 20-638 limits assumed): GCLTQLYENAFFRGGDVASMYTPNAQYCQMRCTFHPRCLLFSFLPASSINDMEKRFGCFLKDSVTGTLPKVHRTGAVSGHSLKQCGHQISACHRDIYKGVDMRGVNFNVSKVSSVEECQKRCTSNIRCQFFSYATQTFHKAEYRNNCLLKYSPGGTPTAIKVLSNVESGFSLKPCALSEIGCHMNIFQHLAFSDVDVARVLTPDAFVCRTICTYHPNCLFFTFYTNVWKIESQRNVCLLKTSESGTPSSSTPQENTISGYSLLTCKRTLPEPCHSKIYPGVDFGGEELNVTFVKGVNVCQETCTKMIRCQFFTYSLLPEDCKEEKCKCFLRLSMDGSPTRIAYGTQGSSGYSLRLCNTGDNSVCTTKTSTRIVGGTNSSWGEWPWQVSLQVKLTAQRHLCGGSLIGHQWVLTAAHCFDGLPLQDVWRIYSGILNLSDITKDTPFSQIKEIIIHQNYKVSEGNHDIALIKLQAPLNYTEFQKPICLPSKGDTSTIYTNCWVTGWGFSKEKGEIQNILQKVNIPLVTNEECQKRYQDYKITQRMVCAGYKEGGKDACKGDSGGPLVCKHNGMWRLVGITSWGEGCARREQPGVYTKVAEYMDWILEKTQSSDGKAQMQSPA
T6 sequence (P01009 other isoform, or with tags, fused parts or gaps): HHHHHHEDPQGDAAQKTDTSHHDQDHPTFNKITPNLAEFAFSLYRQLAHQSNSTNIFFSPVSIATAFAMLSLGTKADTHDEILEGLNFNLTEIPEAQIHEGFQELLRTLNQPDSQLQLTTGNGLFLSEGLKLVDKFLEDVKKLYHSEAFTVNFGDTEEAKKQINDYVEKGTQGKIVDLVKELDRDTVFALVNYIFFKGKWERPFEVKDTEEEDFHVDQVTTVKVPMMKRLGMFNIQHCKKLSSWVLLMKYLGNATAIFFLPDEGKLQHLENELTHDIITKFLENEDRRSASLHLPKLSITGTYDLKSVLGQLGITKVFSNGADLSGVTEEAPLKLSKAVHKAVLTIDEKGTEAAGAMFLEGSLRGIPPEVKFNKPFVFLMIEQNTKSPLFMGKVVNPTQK
T5 sequence (P01009 other isoform, or with tags, fused parts or gaps): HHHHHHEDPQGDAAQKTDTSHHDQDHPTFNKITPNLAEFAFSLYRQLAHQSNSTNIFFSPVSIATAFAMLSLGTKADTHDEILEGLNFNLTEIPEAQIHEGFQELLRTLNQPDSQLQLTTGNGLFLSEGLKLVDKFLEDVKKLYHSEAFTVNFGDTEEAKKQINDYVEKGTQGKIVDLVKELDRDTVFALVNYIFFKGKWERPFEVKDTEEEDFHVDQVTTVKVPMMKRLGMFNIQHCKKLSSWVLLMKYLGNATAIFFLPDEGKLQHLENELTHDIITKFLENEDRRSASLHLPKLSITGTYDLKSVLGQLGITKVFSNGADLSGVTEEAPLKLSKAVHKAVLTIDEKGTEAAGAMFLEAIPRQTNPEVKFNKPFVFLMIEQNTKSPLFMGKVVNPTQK
T7 sequence (P01009 other isoform, or with tags, fused parts or gaps): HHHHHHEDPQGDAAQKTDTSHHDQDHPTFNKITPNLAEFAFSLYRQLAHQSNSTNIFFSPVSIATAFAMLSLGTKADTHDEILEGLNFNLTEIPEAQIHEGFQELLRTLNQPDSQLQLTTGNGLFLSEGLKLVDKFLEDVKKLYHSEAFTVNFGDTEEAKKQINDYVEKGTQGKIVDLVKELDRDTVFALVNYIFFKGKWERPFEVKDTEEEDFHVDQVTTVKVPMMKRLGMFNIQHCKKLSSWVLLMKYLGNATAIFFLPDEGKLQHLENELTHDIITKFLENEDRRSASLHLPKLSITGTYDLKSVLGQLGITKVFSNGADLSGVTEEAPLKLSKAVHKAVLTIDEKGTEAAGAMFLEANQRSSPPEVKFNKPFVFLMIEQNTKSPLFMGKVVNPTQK

Binder: B1
kon (AATC11): 63000 M⁻¹ s⁻¹
kon (AATG1g): 257000 M⁻¹ s⁻¹
kon (AATE5): 28000 M⁻¹ s⁻¹
kon (AATF3): 13000 M⁻¹ s⁻¹
kon (AATG1): 168000 M⁻¹ s⁻¹
kon (AATE8): 242000 M⁻¹ s⁻¹
kon (AATG9 [1]): 217000 M⁻¹ s⁻¹
kon [2]: 263000 M⁻¹ s⁻¹
kon (AATG9 [3]): 217000 M⁻¹ s⁻¹
kon [4]: 263000 M⁻¹ s⁻¹

Binder: B2
kon [5]: 74000 M⁻¹ s⁻¹
SI (stoichiometry of inhibition) [6]: 1.5
Percentage inhibition [7]: 0%
Percentage inhibition [8]: 0%
Percentage inhibition (human kallikrein 8 (hK8)): 0%
Percentage inhibition [9]: 0%
Percentage inhibition (human kallikrein 2 (hK2)): 0%
Percentage inhibition [10]: 100%
Percentage inhibition (human kallikrein 5 (hK5)): 0%
Percentage inhibition (human kallikrein 6 (hK6)): 0%
Percentage inhibition [11]: 100%
Percentage inhibition (human kallikrein 4 (hK4)): 0%
Percentage inhibition (thrombin): 0%
Percentage inhibition [12]: 0%
kon [13]: 75000 M⁻¹ s⁻¹
SI (stoichiometry of inhibition) [14]: 1.5
kon [15]: 74000 M⁻¹ s⁻¹
